Measured values from the Human Domainome abundance scans (Beltran et al. 2025).
± gives the uncertainty stated by the source.

B1: Homeobox protein SIX6, residues 134 to 184; numbered along this chain, O95475 (parent)
chain: CFKERTRHLLREWYLQDPYPNPSKKRELAQATGLTPTQVGNWFKNRRQRDR
B2: Intersectin-2, residues 1129 to 1183; numbered along this chain, Q9NZM3 (parent)
chain: VCQVIAMYDYAANNEDELSFSKGQLINVMNKDDPDWWQGEINGVTGLFPSNYVKM

Variants of: B1
Experiment: abundance fitness (aPCA) (normalised: wild type 0, dead -1); higher = more abundant; growth selection in yeast, the domain comes from the species named
Conditions: Homo sapiens

Row | Variant | abundance fitness
1 | T6Y | -0.45 ± 0.12
2 | T6N | -0.498 ± 0.26
3 | T6I | 0.36 ± 0.071
4 | G40M | -0.533 ± 0.24
5 | T37Q | 0.026 ± 0.065
6 | T37M | -0.249 ± 0.092
7 | T37L | -0.197 ± 0.068
8 | N45S | -0.42 ± 0.076
9 | N45H | -0.123 ± 0.11
10 | Q48K | 0.266 ± 0.14
11 | Q48S | -0.092 ± 0.078
12 | K3C | -0.06 ± 0.086
13 | K3N | -0.196 ± 0.21
14 | W13P | -0.994 ± 0.24
15 | W13M | -0.121 ± 0.076
16 | W13K | -0.528 ± 0.16
17 | R7N | -0.138 ± 0.067
18 | R7V | -0.058 ± 0.062
19 | R7L | 0.051 ± 0.051
20 | L34E | -0.624 ± 0.18
21 | L34Y | -0.587 ± 0.063
22 | L34A | -0.911 ± 0.079
23 | L34C | -0.806 ± 0.081
24 | L34R | -0.719 ± 0.078
25 | E4K | -0.125 ± 0.14

Row | Variant | abundance fitness
26 | E4H | -0.587 ± 0.21
27 | E4W | -0.354 ± 0.063
28 | G33Y | -0.741 ± 0.19
29 | P18D | -0.734 ± 0.11
30 | V39L | -0.769 ± 0.053
31 | V39R | -0.882 ± 0.052
32 | R51D | -0.25 ± 0.047
33 | R51C | -0.691 ± 0.45
34 | R51K | -0.133 ± 0.33
35 | L28V | -0.378 ± 0.052
36 | L28H | -0.903 ± 0.1
37 | L28W | -0.788 ± 0.15
38 | L28E | -0.808 ± 0.15
39 | D17H | -0.812 ± 0.064
40 | D17C | -0.749 ± 0.1
41 | D17L | -0.794 ± 0.063
42 | P22R | -0.634 ± 0.081
43 | P20E | -0.969 ± 0.25
44 | P20G | -0.887 ± 0.11
45 | A31R | -0.185 ± 0.06
46 | A31D | -0.888 ± 0.32
47 | A31C | -0.287 ± 0.082
48 | A31G | -0.65 ± 0.058
49 | A31W | -0.494 ± 0.11
50 | E27A | -0.207 ± 0.08

Row | Variant | abundance fitness
51 | R47A | -0.635 ± 0.062
52 | R47H | -0.762 ± 0.12
53 | T32V | -0.294 ± 0.076
54 | T32Q | -1.01 ± 0.26
55 | T32E | -0.519 ± 0.19
56 | T32D | -0.719 ± 0.18
57 | T32N | -0.84 ± 0.12
58 | R49D | -0.074 ± 0.11
59 | R26L | 0.039 ± 0.069
60 | R26H | -0.121 ± 0.068
61 | K25G | -0.789 ± 0.064
62 | K25T | -0.074 ± 0.074
63 | W42K | -0.952 ± 0.31
64 | W42E | -0.683 ± 0.15
65 | L9V | -0.328 ± 0.085
66 | L9P | -0.645 ± 0.061
67 | K24H | -0.493 ± 0.097
68 | K24R | -0.104 ± 0.058
69 | K24M | -0.139 ± 0.084
70 | N21D | 0.218 ± 0.094
71 | N21P | -0.505 ± 0.4
72 | N21M | -0.049 ± 0.26
73 | N21Q | -0.105 ± 0.076
74 | N21L | -0.149 ± 0.072
75 | D50Q | -0.189 ± 0.094

Row | Variant | abundance fitness
76 | D50P | -0.862 ± 0.25
77 | D50L | -1.1 ± 0.24
78 | R46S | -0.165 ± 0.055
79 | R46Q | 0.11 ± 0.089
80 | R46T | -0.055 ± 0.088
81 | R11M | -0.019 ± 0.1
82 | R11S | -0.077 ± 0.058
83 | R11Y | 0.097 ± 0.11
84 | L10Q | -0.613 ± 0.14
85 | N41V | -0.269 ± 0.069
86 | N41Q | -0.124 ± 0.078
87 | F2A | -0.111 ± 0.043
88 | F2G | -0.017 ± 0.051
89 | Y19H | -0.364 ± 0.19
90 | Y19F | -0.138 ± 0.068
91 | Q38D | -0.626 ± 0.13
92 | Q38L | -0.826 ± 0.069
93 | Q30K | -0.03 ± 0.1
94 | Q30I | 0.036 ± 0.11
95 | Q30M | -0.006 ± 0.073
96 | Q30Y | -0.381 ± 0.1
97 | Y14I | -0.64 ± 0.095
98 | Y14V | -0.838 ± 0.095
99 | Y14T | -1.06 ± 0.39
100 | Y14D | -0.882 ± 0.086

Row | Variant | abundance fitness
101 | P36Y | 0.372 ± 0.061
102 | P36F | 0.217 ± 0.082
103 | P36A | -0.225 ± 0.052
104 | Q16Y | -0.12 ± 0.32
105 | S23D | 0.038 ± 0.13
106 | S23G | -0.328 ± 0.088
107 | S23I | -0.579 ± 0.14
108 | S23Y | -0.726 ± 0.17
109 | S23M | -0.257 ± 0.1
110 | L15C | 0.49 ± 0.15
111 | L15Q | -0.025 ± 0.066
112 | L15P | -0.922 ± 0.19
113 | K44L | -0.525 ± 0.056
114 | K44Q | -0.271 ± 0.055
115 | K44E | -0.009 ± 0.052
116 | K44G | -0.68 ± 0.07
117 | R5W | -0.558 ± 0.16
118 | E12N | -0.428 ± 0.19
119 | E12C | -0.262 ± 0.063
120 | E12A | -0.427 ± 0.055
121 | E12D | -0.124 ± 0.054

Variants of: B2
Experiment: as above
Conditions: Homo sapiens

Row | Variant | abundance fitness
122 | I5H | -0.188 ± 0.063
123 | I5Q | -0.085 ± 0.043
124 | I5N | -0.186 ± 0.049
125 | I5D | -0.164 ± 0.037
126 | I5M | -0.144 ± 0.038
127 | I5E | -0.062 ± 0.052
128 | I5V | -0.015 ± 0.037
129 | I5P | -0.531 ± 0.053
130 | I5S | -0.134 ± 0.036
131 | I5T | 0.023 ± 0.03
132 | I5K | -0.173 ± 0.049
133 | I5G | -0.457 ± 0.033
134 | I5A | -0.121 ± 0.035
135 | I5F | -0.022 ± 0.038
136 | I5L | -0.132 ± 0.041
137 | I5Y | -0.062 ± 0.058
138 | I5R | -0.147 ± 0.04
139 | I5W | -0.056 ± 0.037
140 | I5C | -0.077 ± 0.049
141 | Q3I | -0.006 ± 0.083
142 | Q3V | -0.042 ± 0.052
143 | Q3D | -0.19 ± 0.064
144 | Q3T | -0.047 ± 0.054

Row | Variant | abundance fitness
145 | Q3N | -0.169 ± 0.064
146 | Q3F | 0.027 ± 0.042
147 | Q3K | 0.002 ± 0.039
148 | Q3C | -0.066 ± 0.062
149 | Q3M | -0.053 ± 0.044
150 | Q3E | 0.081 ± 0.062
151 | Q3W | -0.076 ± 0.046
152 | Q3L | -0.134 ± 0.044
153 | Q3S | 0.012 ± 0.047
154 | Q3R | -0.13 ± 0.042
155 | Q3Y | -0.029 ± 0.064
156 | Q3P | -0.116 ± 0.032
157 | Q3A | -0.07 ± 0.046
158 | V1P | -0.652 ± 0.27
159 | V1T | 0.107 ± 0.1
160 | V1L | -0.206 ± 0.078
161 | V1D | -0.043 ± 0.056
162 | V1A | -0.27 ± 0.056
163 | V1E | -0.054 ± 0.041
164 | V1N | -0.247 ± 0.18
165 | V1Y | -0.453 ± 0.4
166 | V1R | -0.228 ± 0.09
167 | V1F | 0.04 ± 0.12
